# Data: publication PMC12014907
# B1: gp130 phosphopeptide R168I (peptide)
# chain: SGYIHQVPSV
# Target: STAT3^136-705, P40763
# Test: thermal shift assay
# Conditions: chain shown with the change; 25 μM phosphopeptides; parent: est. 54; read off a plot
# Chain of STAT3^136-705, P40763 (P40763 136-705): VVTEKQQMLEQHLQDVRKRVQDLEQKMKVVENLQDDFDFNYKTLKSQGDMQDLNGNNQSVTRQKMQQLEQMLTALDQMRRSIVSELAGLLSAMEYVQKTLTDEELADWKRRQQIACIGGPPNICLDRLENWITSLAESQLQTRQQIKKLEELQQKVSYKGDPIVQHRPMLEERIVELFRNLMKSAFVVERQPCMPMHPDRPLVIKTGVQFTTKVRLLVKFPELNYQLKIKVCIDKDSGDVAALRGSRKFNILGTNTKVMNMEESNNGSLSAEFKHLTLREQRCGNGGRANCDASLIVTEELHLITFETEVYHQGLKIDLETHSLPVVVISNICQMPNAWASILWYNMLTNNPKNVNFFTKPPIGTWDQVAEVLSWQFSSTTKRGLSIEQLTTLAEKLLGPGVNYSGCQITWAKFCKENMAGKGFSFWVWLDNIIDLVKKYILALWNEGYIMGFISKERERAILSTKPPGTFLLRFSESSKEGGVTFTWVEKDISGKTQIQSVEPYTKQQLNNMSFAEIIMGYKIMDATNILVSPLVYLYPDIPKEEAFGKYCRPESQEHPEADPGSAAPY
binder,measurement,value
B1,other: Tm of STAT3 with bound peptide (thermal shift),55 °C
